Assay results reported in patent publication US20210324080A1.
Values belong to the substance of their own block, whether it stands above or below them.

Assays:
[1] = target: human CTLA-4 (Y201V), full length, on transfected cells (human) (UniProt P16410); experiment: FACS, human CTLA-4 expressing cells
[2] = target: human CTLA-4 (Y201V), full length, on transfected cells (human) (UniProt P16410); experiment: FACS, CHOK1-hCTLA-4 cells
[3] = target: monkey CTLA-4, full length, on transfected HEK293 cells (monkey); experiment: FACS, monkey CTLA-4 expressing cells
[4] = target: monkey CTLA-4, full length, on transfected HEK293 cells (monkey); experiment: FACS, 293F-cCTLA-4 cells
[5] = target: CTLA-4-hFc (immunogen A; hFc-labeled CTLA-4 extracellular domain protein) (human) (UniProt P16410); experiment: blocking assay, CTLA-4 protein, competitor B7.2
Chain of CTLA-4-hFc (immunogen A; hFc-labeled CTLA-4 extracellular domain protein) (human) (P16410 36-161 limits assumed): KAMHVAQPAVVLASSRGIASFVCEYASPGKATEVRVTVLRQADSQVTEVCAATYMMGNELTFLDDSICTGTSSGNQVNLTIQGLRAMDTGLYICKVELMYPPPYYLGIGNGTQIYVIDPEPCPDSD

[6] = target: CTLA-4-hFc (immunogen A; hFc-labeled CTLA-4 extracellular domain protein) (human) (UniProt P16410); experiment: blocking assay, CTLA-4 protein, competitor B7.1
[7] = target: CTLA-4-hFc (immunogen A; hFc-labeled CTLA-4 extracellular domain protein) (human) (UniProt P16410); experiment: ELISA, coated CTLA-4-hFc, competitor biotin-B7.2-hFc
[8] = target: CTLA-4-hFc (immunogen A; hFc-labeled CTLA-4 extracellular domain protein) (human) (UniProt P16410); experiment: ELISA, coated CTLA-4-hFc, competitor biotin-B7.1-hFc

Chain of human CTLA-4 (Y201V), full length, on transfected cells (human) (P16410 36-223 Y201V): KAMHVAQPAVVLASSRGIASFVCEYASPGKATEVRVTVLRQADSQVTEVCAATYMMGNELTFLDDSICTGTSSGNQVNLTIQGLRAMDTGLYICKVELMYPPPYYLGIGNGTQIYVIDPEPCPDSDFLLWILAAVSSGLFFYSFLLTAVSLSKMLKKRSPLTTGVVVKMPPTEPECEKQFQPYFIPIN

- MFI at 0.000128 nM [1]: 3
- MFI at 0.0128 nM [1]: 3
- MFI at 0.064 nM [1]: 3
- MFI at 0.32 nM [1]: 3
- MFI at 1.6 nM [1]: 3
- MFI at 8 nM [1]: 3
- MFI at 40 nM [1]: 4
- MFI at 200 nM [1]: 6
- MFI at 0.07 nM [2]: 2
- MFI at 0.67 nM [2]: 2
- MFI at 6.67 nM [2]: 3
- MFI at 66.67 nM [2]: 8
- MFI at 0.000128 nM [3]: 3
- MFI at 0.0128 nM [3]: 3
- MFI at 0.064 nM [3]: 3
- MFI at 0.32 nM [3]: 2
- MFI at 1.6 nM [3]: 3
- MFI at 8 nM [3]: 3
- MFI at 40 nM [3]: 3
- MFI at 200 nM [3]: 5
Substance: IgG control (human IgG) (antibody)

- MFI at 0.000128 nM [4]: 2.7
- MFI at 0.0128 nM [4]: 2.6
- MFI at 0.064 nM [4]: 2.6
- MFI at 0.32 nM [4]: 2.4
- MFI at 1.6 nM [4]: 2.6
- MFI at 8 nM [4]: 2.9
- MFI at 40 nM [4]: 3.3
- MFI at 200 nM [4]: 4.9
- % Block at 0.000128 nM [5]: 0%
- % Block at 0.0128 nM [5]: 12.3%
- % Block at 0.064 nM [5]: 12.9%
- % Block at 0.32 nM [5]: 15.5%
- % Block at 1.6 nM [5]: 4.1%
- % Block at 8 nM [5]: 4.9%
- % Block at 40 nM [5]: 18.3%
- % Block at 200 nM [5]: 12.4%
- % Block at 0.000128 nM [6]: 0%
- % Block at 0.0128 nM [6]: -2%
- % Block at 0.064 nM [6]: 0.2%
- % Block at 1.6 nM [6]: 1.3%
- % Block at 8 nM [6]: -0.1%
- % Block at 40 nM [6]: 1.6%
- % Block at 200 nM [6]: -0.3%
Substance: hIgG1 (antibody)

- Inhibition rate (%) at 0.00091 nM [7]: 0%
- Inhibition rate (%) at 0.091 nM [7]: -8%
- Inhibition rate (%) at 0.274 nM [7]: -10%
- Inhibition rate (%) at 0.823 nM [7]: -1%
- Inhibition rate (%) at 2.5 nM [7]: -7%
- Inhibition rate (%) at 7.4 nM [7]: -12%
- Inhibition rate (%) at 22.2 nM [7]: 10%
- Inhibition rate (%) at 66.7 nM [7]: 61%
- Inhibition rate (%) at 0.00091 nM [8]: 0%
- Inhibition rate (%) at 0.091 nM [8]: -36%
- Inhibition rate (%) at 0.274 nM [8]: -41%
- Inhibition rate (%) at 0.823 nM [8]: -37%
- Inhibition rate (%) at 2.5 nM [8]: -39%
- Inhibition rate (%) at 7.4 nM [8]: -40%
- Inhibition rate (%) at 22.2 nM [8]: -41%
- Inhibition rate (%) at 66.7 nM [8]: -10%
Substance: hIgG4 (antibody)
